From the supplement of paper PMC7125110
± gives the standard error. For part of these data: This sample holds only a part of the variants without activity.

B1: glmS ribozyme (parent)
chain: AUAAAAGCGCCAGAACUACAGAAAUGUAGUUGACGAGGAGGAGGUUUAUCGAAUUUUCGGCGGAUGCCUCCAAA

How the values were obtained:
Conditions in all cases: with glucosamine-6-phosphate
glucosamine-6-phosphate [1] = variants of: B1; experiment: kcat; higher = faster cleavage; RNA array
Procedure, shortened: (§1)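 E. coli RNA polymerase transcribed barcoded ribozyme variants in situ on sequenced MiSeq chips, which were tracked via a hybridised Cy3 probe at 37 °C. Tiles were imaged over ~14 h after glucosamine-6-phosphate (40 μM to 10 mM) in HEPES/KCl/Mg(OAc)2 buffer was flowed in. Normalised per-tile medians were fit to one- or two-exponential decays for kobs, and kcat and KM came from weighted Michaelis–Menten fits.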

glucosamine-6-phosphate [2] = variants of: B1; experiment: self-cleavage kobs at 40 uM GlcN6P; higher = faster cleavage; RNA array
Procedure, shortened: as §1

glucosamine-6-phosphate [3] = variants of: B1; experiment: self-cleavage kobs at 10000 uM GlcN6P; higher = faster cleavage; RNA array
Procedure, shortened: as §1

glucosamine-6-phosphate [4] = variants of: B1; experiment: self-cleavage kobs at 2500 uM GlcN6P; higher = faster cleavage; RNA array
Procedure, shortened: as §1

glucosamine-6-phosphate [5] = variants of: B1; experiment: KM; higher = weaker cofactor use; RNA array
Procedure, shortened: as §1

glucosamine-6-phosphate [6] = variants of: B1; experiment: self-cleavage kobs at 160 uM GlcN6P; higher = faster cleavage; RNA array
Procedure, shortened: as §1

glucosamine-6-phosphate [7] = variants of: B1; experiment: self-cleavage kobs at 640 uM GlcN6P; higher = faster cleavage; RNA array
Procedure, shortened: as §1

Variant	kcat (glucosamine-6-phosphate [1]) [s⁻¹]	self-cleavage kobs at 40 uM GlcN6P (glucosamine-6-phosphate [2]) [s⁻¹]	self-cleavage kobs at 10000 uM GlcN6P (glucosamine-6-phosphate [3]) [s⁻¹]	self-cleavage kobs at 2500 uM GlcN6P (glucosamine-6-phosphate [4]) [s⁻¹]	KM (glucosamine-6-phosphate [5]) [mM]	self-cleavage kobs at 160 uM GlcN6P (glucosamine-6-phosphate [6]) [s⁻¹]	self-cleavage kobs at 640 uM GlcN6P (glucosamine-6-phosphate [7]) [s⁻¹]
U31G G59A	0.000131 ± 8.6e-06	< 1e-05	4.18e-05 ± 1.3e-05	–	–	–	–
C58U C67U	2.38e-05 ± 3.4e-06	–	2.01e-05 ± 6.4e-06	2.92e-05 ± 8e-06	–	–	–
U45G C68U	0.00118 ± 0.00032	–	0.000826 ± 8.4e-05	0.000287 ± 5.6e-05	5.19 ± 2.4	5.23e-05 ± 1.3e-05	0.000145 ± 2.5e-05
G38A U54G	< 1e-05	< 1e-05	–	–	–	–	–
G40A C71U	0.0789 ± 0.028	0.000981 ± 7.3e-05	0.0591 ± 0.0079	0.0322 ± 0.009	3.66 ± 1.5	0.00194 ± 0.00048	0.0113 ± 0.0013
G32A U69G	6.22e-05 ± 1.2e-05	3.77e-05 ± 1.4e-05	5.26e-05 ± 8.5e-06	5.99e-05 ± 9.1e-06	–	–	0.000117 ± 1.8e-05
A48G U57C C61A	< 1e-05	–	–	< 1e-05	–	–	–
C16U G41C	0.000304 ± 4.3e-05	–	0.000246 ± 4.5e-05	0.000244 ± 3.8e-05	1.03 ± 0.37	2.95e-05 ± 1.4e-05	0.000139 ± 3.6e-05
G40U A53G	0.00428 ± 0.0018	0.00024 ± 5.5e-05	0.0062 ± 0.0017	0.00316 ± 0.00063	–	0.000703 ± 0.0002	0.00118 ± 0.00028
C11U C70A	5.41e-05 ± 1e-05	–	4.63e-05 ± 6.2e-06	5.81e-05 ± 9.9e-06	–	–	8.46e-05 ± 1.3e-05
U31A U45C	0.00168 ± 0.00049	–	0.00116 ± 0.00024	0.000998 ± 0.00023	3.38 ± 1.6	–	0.000288 ± 8.9e-05
U56G C70A	4.56e-05 ± 9.3e-06	–	3.66e-05 ± 8.6e-06	6.95e-05 ± 1.6e-05	–	3.41e-05 ± 1.7e-05	7.43e-05 ± 3e-05
G29U A48G	1.1e-05 ± 1.6e-06	–	–	–	–	–	–
A42U A48U A64U C68U	< 1e-05	–	< 1e-05	< 1e-05	0.0113 ± 0.0035	–	–
U46C U55C	0.00703 ± 0.0025	0.000129 ± 1.9e-05	0.00515 ± 0.00071	0.00291 ± 0.00042	3.63 ± 1.7	0.000217 ± 4.2e-05	0.00108 ± 0.00013
U31C G59U	< 1e-05	< 1e-05	–	–	–	–	< 1e-05
